Laboratory results from article PMC8413895.

Biological target: HIV-1 Env variant ADA.CM, trimer on virions (HIV-1 (ADA.CM))

Question: With 4E10 Fab (parental, wild-type) as the substance, how does the IC50 of neutralization of ADA.CM pseudovirus, TZM-bl assay read?
Answer: 2.7 µg/mL
